Laboratory results from patent publication US20250064983A1, “COMPOSITIONS AND METHODS FOR TREATING A CARDIAC DISEASE” (The Children's Medical Center Corporation, priority 2022, published 2025).
Entries after “also recorded” stand apart in the source; their conditions may differ. Blank lines part the entries; values can stand above or below the molecule they belong to. Where no end group is shown, it is not given here.

Legend:
CaMKII = conditions: FIG. 2A, in vitro system of the cited papers; cited from earlier work
LKB1 knockout mice = assay: Example 5: beat-to-beat variability (EKG) in LKB1 knockout mice (AF model); assay type: in vivo, mouse
Source text: Two different atrial fibrillation (AF) mouse models were used to test the efficacy of AIP×5 at treating AF of different origins. The two different AF mouse models were liver kinase B1 (LKB1) knock out mice and T-box transcription factor 5 (Tbx5) knock out mice.
LKB1-floxed or Tbx5-floxed mice were used to test the efficacy of AIP×5. AAV-NPPA-Cre was then used to conditionally knock out LKB1 or Tbx5 from the atria of the mice. NPPA is an atria specific promoter, ensuring that Cre recombinase directed knockout of LKB1 or Tbx5 was restricted to the atria. AAV-NPPA-FP (fluorescent protein) was used as a control virus. AAV-NPPA-FP has no Cre, and therefore the gene of interest is not knocked out. Uninjected mice were also included as a control to account for any effects caused by AAV injections. AAV-cTnT-AIP×5 or AAV-cTnT-CN19o were both tested as potential therapies to AF.
In short, P3 LKB1-floxed or Tbx5-floxed mice were injected (or not injected in the uninjected controls), and then EKG measurements of the mice were taken every two weeks starting at P14. At 12 weeks, the mice were sacrificed, and the sacrificed mice were tested for protein expression.
AF was calculated using the standard deviation of the beat-to-beat timing differences. A high beat-to-beat variability when sedated was indicative of atrial misfiring.
Statistical significance in the tests illustrated in FIGS. 10 and 11 was conducted using a 2-way Anova with post-hoc Dunnett's multiple comparisons to control (FP) group.

CaMKIIδ = CaMKIIδ (Homo sapiens, UniProt Q13557); assay: in vitro inhibition of CaMKIIδ, bioluminescent ADP monitoring assay (ADP-GLO); assay type: biochemical; conditions: purified polypeptides
Procedure: FIG. 4 provides a schematic illustrating the design of an in vitro experiment to evaluate the impact of the purified polypeptides described in FIG. 2D and shown in the left portion of FIG. 4 on CaMKIIδ (an isomer of CaMKII) activity. Activity of CaMKIIδ was measured using a bioluminescent and homogeneous ADP monitoring assay for kinases (ADP-GLO™), which is described in Zegzouti, et al. “ADP-Glo: A Bioluminescent and Homogeneous ADP Monitoring Assay for Kinases,” ASSAY and Drug Development Technologies, December 2009, 560-572, doi.org/10.1089/adt.2009.0222, the disclosure of which is incorporated herein by reference in its entirety for all purposes.
Inhibition of CaMKIIδ activity by the polypeptides was evaluated using a bioluminescent and homogeneous ADP monitoring assay for kinases (ADP-GLO™), which is described in Zegzouti, et al. “ADP-Glo: A Bioluminescent and Homogeneous ADP Monitoring Assay for Kinases,” ASSAY and Drug Development Technologies, December 2009, 560-572, doi.org/10.1089/adt.2009.0222, the disclosure of which is incorporated herein by reference in its entirety for all purposes (FIG. 4).

AIPx5 multimer = target: T1, AIPx5 multimer
T1 chain: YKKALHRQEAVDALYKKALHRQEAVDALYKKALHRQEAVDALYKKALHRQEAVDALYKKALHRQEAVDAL

[1] = target: T2, autocamtide-2-related inhibitory peptide (AIP)
T2 chain: YKKALHRQEAVDAL

CaMKIIδ, Q13557 = assay: cell-based or functional assay
Sequence of CaMKIIδ, Q13557 (Q13557 whole entry, stated change not applied): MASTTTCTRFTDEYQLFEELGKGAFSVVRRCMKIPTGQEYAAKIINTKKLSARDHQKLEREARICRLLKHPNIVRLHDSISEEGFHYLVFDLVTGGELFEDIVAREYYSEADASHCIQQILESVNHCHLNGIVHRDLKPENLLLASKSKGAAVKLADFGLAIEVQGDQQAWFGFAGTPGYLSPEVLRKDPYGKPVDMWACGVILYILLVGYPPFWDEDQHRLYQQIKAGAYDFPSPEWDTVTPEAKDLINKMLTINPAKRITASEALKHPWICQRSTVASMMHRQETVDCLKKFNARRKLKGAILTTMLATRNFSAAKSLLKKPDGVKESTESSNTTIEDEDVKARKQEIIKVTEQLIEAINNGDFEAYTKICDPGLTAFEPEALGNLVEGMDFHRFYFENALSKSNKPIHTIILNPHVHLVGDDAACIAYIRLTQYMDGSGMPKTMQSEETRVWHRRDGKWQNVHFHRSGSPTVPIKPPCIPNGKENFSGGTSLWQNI

Sequence of CaMKIIδ (Q13557 1-478): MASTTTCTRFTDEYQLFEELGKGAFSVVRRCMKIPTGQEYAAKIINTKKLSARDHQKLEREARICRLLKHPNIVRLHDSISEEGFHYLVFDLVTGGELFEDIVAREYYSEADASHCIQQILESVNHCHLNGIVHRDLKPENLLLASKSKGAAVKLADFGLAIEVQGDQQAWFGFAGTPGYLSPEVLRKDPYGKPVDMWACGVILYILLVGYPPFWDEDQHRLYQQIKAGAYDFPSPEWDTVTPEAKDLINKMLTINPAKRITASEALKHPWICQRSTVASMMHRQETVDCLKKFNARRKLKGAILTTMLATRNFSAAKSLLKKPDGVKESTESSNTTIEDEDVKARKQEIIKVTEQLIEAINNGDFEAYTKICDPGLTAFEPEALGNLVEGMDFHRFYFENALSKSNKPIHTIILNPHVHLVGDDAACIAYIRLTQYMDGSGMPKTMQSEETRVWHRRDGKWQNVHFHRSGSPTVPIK

Molecule: KRAPKLGQIGRQKAVDIED [CN19o, reference compound]
- IC50 / potency of CaMKII inhibition compared with AIP (CaMKII): lower IC50 than AIP; also recorded: more potent inhibitor of CaMKII than AIP
- beat-to-beat variability compared to LKB1 knockout mice alone (LKB1 knockout mice): performed worse in measures of beat-to-beat variability than LKB1 knockout mice alone
- suppression of beat-to-beat variability (LKB1 knockout mice; AAV-cTnT vector, FIG. 10): did not suppress beat-to-beat variability
- EC50 (CaMKIIδ): 1.6 nM

Molecule: YKKALHRQEAVDALYKKALHRQEAVDALYKKALHRQEAVDAL [AIP×3]
- EC50 (CaMKIIδ): 543 nM

B1: CaMKII (endogenous, mouse heart) (protein)
chain: MATTATCTRFTDDYQLFEELGKGAFSVVRRCVKKTSTQEYAAKIINTKKLSARDHQKLEREARICRLLKHPNIVRLHDSISEEGFHYLVFDLVTGGELFEDIVAREYYSEADASHCIHQILESVNHIHQHDIVHRDLKPENLLLASKCKGAAVKLADFGLAIEVQGEQQAWFGFAGTPGYLSPEVLRKDPYGKPVDIWACGVILYILLVGYPPFWDEDQHKLYQQIKAGAYDFPSPEWDTVTPEAKNLINQMLTINPAKRITADQALKHPWQRSTVASMMHRQETVECLRKFNARRKLKGAILTTMLVSRNFSAAKSLLNKKSDGGVKKRKSSSSVHLMPQSNNKNSLVSPAQEPAPLQTAMEPQTTVVHNATDGIKGSTESCNTTTEDEDLKAAPLRTGNGSLVPEGRSPRDRTAPSAGMQPQPSLCSSAMRKQEIIKITEQLIEAINNGDFEAYTKICDPGLTSFEPEALGNLVEGMDFHKFYFENLLSKNSKPIHTTILNPHVHVIGEDAACIAYIRLTQYIDGQGRPRTSQSEETRVWHRRDGKWLNVHYHCSGAPAAPLQ
- phosphorylation of phospholamban (PLB) at threonine-17 in heart tissue exposed to isoproterenol (capillary Western, pPLB/PLB) (AIPx5 multimer): contacting cells with AIP or AIP×5 resulted in a statistically significant decrease in PLB phosphorylation in cells exposed to ISO
- phosphorylation of phospholamban (PLB) at threonine-17 in heart tissue exposed to isoproterenol (capillary Western, pPLB/PLB) [1]: contacting cells with AIP or AIP×5 resulted in a statistically significant decrease in PLB phosphorylation in cells exposed to ISO

B2: AIPx5 multimer (peptide)
peptide: T1 chain
- EC50 (inhibition of CaMKIIδ activity, ADP-GLO bioluminescent ADP monitoring assay) (CaMKIIδ, Q13557): 114 nM

Molecule: KRAPKLGQIGRQKAVDIED [CN19o]
- EC50 (inhibition of CaMKIIδ activity, ADP-GLO bioluminescent ADP monitoring assay) (CaMKIIδ, Q13557): 1.6 nM

Molecule: YKKALHRQEAVDALYKKALHRQEAVDALYKKALHRQEAVDAL [AIPx3 multimer]
- EC50 (inhibition of CaMKIIδ activity, ADP-GLO bioluminescent ADP monitoring assay) (CaMKIIδ, Q13557): 543 nM

Other lines, results leading:

- EC50 (CaMKIIδ): 2.1 nM
Molecule: KRAPKLGQIGRQKAVDIEDKRAPKLGQIGRQKAVDIEDKRAPKLGQIGRQKAVDIED [CN19oX3]

- EC50 (inhibition of CaMKIIδ activity, ADP-GLO bioluminescent ADP monitoring assay) (CaMKIIδ, Q13557): 6150 nM
Molecule: YKKALHRQEAVDAL [autocamtide-2-related inhibitory peptide (AIP)]

- EC50 (inhibition of CaMKIIδ activity, ADP-GLO bioluminescent ADP monitoring assay) (CaMKIIδ, Q13557): 2.1 nM
B3: CN19oX3 multimer (peptide)
peptide: KRAPKLGQIGRQKAVDIEDKRAPKLGQIGRQKAVDIEDKRAPKLGQIGRQKAVDIED
